Test results published in IntAct's records for PubMed 17057713.

B1: A-type potassium channel modulatory protein KCNIP1 (Homo sapiens), Q9NZI2 (parent)
chain: MGAVMGTFSSLQTKQRRPSKDIAWWYYQYQRDKIEDELEMTMVCHRPEGLEQLEAQTNFTKRELQVLYRGFKNECPSGVVNEDTFKQIYAQFFPHGDASTYAHYLFNAFDTTQTGSVKFEDFVTALSILLRGTVHEKLRWTFNLYDINKDGYINKEEMMDIVKAIYDMMGKYTYPVLKEDTPRQHVDVFFQKMDKNKDGIVTLDEFLESCQEDDNIMRSLQLFQNVM
partner: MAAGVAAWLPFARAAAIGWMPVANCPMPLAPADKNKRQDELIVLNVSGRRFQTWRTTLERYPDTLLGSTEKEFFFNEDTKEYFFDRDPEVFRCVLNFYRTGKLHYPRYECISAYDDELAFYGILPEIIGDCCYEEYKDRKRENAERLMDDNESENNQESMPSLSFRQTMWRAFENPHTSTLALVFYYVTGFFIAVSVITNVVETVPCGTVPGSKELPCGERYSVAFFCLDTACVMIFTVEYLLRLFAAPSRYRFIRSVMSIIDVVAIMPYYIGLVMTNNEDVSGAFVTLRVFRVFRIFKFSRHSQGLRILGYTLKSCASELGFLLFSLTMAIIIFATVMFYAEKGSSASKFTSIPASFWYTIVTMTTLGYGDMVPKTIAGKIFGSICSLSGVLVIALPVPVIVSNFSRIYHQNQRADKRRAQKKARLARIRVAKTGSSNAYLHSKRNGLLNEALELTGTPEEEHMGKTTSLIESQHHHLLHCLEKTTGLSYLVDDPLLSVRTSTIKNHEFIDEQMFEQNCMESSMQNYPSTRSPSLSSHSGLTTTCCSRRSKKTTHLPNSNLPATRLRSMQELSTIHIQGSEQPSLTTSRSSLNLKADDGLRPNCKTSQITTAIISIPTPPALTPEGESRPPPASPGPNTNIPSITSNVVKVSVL

Variants of: B1
Details: with kcnd3_rat Kcnd3, Q62897

Row | effect of a mutation on the interaction | Variant
1 | decreasing interaction strength | D146A;D194A
